Data taken from paper PMC8809517, “Cofactor-independent RNA editing by a synthetic S-type PPR protein”.

Experiments:
Assay in all cases: high-throughput RNA pulldown from lysate on Ni-NTA beads; HRP: 50 mM Tris pH 8, 150 mM NaCl, 1 mM beta-mercaptoethanol, 50 ug/ml BSA, 3 ug/ml yeast RNA, 0.5% heparin; ITC and FP: Tris pH 8, 200 mM KCl, 5% glycerol; MST: 50 mM Tris pH 8, 200 mM NaCl, 1 mM DTT, BSA, heparin, 0.05% Tween 20
Conditions in all cases: tags: N-terminal His-eGFP
[1] = biological target: T1, GFP-9S library array, motif 4 ND D124S (synthetic construct, D124S)
T1 chain: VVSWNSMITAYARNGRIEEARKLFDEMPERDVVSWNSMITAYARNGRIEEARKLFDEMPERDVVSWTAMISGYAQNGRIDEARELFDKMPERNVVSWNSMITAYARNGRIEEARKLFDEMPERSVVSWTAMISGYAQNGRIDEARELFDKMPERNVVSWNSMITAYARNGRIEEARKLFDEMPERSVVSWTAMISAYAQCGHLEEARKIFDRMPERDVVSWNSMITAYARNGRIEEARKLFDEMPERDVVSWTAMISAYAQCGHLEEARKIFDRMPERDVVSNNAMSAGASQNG

[2] = biological target: T2, GFP-9S library array, motif 4 ND N98Y;D124G (synthetic construct, N98Y;D124G)
T2 chain: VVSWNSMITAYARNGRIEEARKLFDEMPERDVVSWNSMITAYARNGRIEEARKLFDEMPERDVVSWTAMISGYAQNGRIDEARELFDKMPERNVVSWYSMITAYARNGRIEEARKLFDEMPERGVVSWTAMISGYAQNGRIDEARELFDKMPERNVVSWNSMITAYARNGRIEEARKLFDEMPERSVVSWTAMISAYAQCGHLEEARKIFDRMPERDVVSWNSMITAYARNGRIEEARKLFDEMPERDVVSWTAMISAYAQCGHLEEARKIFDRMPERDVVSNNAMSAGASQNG

[3] = biological target: T3, GFP-9S library array, motif 4 ND N98S;D124H (synthetic construct, N98S;D124H)
T3 chain: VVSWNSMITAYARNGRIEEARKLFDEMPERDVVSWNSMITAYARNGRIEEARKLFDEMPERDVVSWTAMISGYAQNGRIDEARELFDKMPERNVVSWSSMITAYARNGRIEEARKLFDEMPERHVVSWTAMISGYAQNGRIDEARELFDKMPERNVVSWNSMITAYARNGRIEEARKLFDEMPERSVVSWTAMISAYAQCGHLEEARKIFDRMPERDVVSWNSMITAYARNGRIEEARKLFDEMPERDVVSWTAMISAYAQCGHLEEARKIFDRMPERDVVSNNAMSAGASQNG

[4] = biological target: T4, GFP-9S library array, motif 4 ND N98G;D124Y (synthetic construct, N98G;D124Y)
T4 chain: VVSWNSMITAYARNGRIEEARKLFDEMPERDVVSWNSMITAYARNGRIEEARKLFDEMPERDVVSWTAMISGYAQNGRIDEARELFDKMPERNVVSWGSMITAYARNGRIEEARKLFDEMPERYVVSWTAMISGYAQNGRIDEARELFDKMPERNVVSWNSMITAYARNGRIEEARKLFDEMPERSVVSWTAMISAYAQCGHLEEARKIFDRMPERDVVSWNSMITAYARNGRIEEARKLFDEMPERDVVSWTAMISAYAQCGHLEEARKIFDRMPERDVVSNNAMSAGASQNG

[5] = biological target: T5, GFP-9S library array, motif 4 ND N98Y;D124E (synthetic construct, N98Y;D124E)
T5 chain: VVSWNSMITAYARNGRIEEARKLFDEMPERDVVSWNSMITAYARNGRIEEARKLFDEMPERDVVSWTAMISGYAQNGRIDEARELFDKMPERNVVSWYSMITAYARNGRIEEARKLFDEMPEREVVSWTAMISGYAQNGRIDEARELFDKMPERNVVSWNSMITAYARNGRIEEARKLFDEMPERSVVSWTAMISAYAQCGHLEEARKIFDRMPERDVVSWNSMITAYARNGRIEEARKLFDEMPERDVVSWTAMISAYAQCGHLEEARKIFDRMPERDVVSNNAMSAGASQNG

B1: Cy5-rpoA (ssRNA)
RNA: AUUACACGUGA
B1 was tested, and the Kd ([1]; label: 5' Cy5) was 2.01 nM, the Kd ([2]; label: 5' Cy5) was 183 nM and the Kd ([3]; label: 5' Cy5) was 122 nM. For the same binder, the Kd ([4]; label: 5' Cy5) was 272 nM and the Kd ([5]; label: 5' Cy5) was 128 nM.

B2: Cy5-rpoA-G (ssRNA)
RNA: AUUAGACGUGA
Work on B2 yielded a Kd ([1]; label: 5' Cy5) of 522 nM, a Kd ([2]; label: 5' Cy5) of 177 nM and a Kd ([3]; label: 5' Cy5) of 99.4 nM. For the same binder, the Kd ([4]; label: 5' Cy5) was 280 nM and the Kd ([5]; label: 5' Cy5) was 169 nM.

B3: IR-rpoA-A (ssRNA)
RNA: AUUAAACGUGA
For B3, the Kd ([1]; label: 5' IRDye 800CW) was 162 nM, the Kd ([2]; label: 5' IRDye 800CW) was 567 nM and the Kd ([3]; label: 5' IRDye 800CW) was 53.5 nM. It also gave a Kd ([4]; label: 5' IRDye 800CW) of 548 nM and a Kd ([5]; label: 5' IRDye 800CW) of 488 nM.

B4: IR-rpoA-U (ssRNA)
RNA: AUUAUACGUGA
With B4 the Kd ([1]; label: 5' IRDye 800CW) was 5.07 nM, the Kd ([2]; label: 5' IRDye 800CW) was 211 nM and the Kd ([3]; label: 5' IRDye 800CW) was 101 nM. The Kd ([4]; label: 5' IRDye 800CW) was 574 nM and the Kd ([5]; label: 5' IRDye 800CW) was 286 nM.
